Results reported in patent publication US20210123036A1 (UNIVERSITY OF LIVERPOOL, published 2021).
Where no end group is shown, it is not given here.

What was measured:
[1] = molecular target: type I collagen gelatin (skin gelatin); test: ELISA-type plate binding assay, biotinylated protein on gelatin-coated plate
type II collagen gelatin [2] = molecular target: T1, type II collagen gelatin; test: as above
T1 construct: Denatured collagen, coated on plates (ELISA-type assay, cell adhesion) or added in solution (NMR); also called type II gelatin; collagen type II gelatin

[3] = molecular target: type I collagen gelatin (skin gelatin); test: ELISA-type plate binding assay, comparison of apparent Kd
type II collagen gelatin [4] = molecular target: T1, type II collagen gelatin; test: cell-based or functional assay
type II collagen gelatin [5] = molecular target: T1, type II collagen gelatin; test: ELISA-type plate binding assay, comparison of Kd
Procedure: The chimeric peptides were assessed for binding to collagen type I and type II gelatin using the plate binding assay (described in the materials and methods section). […] A peptide comprising three modules corresponding to module 1 was not tested.

type II collagen gelatin [6] = molecular target: T1, type II collagen gelatin; test: ELISA-type plate binding assay, comparison of Kd (summary of the Examples)

Chain of type I collagen gelatin (skin gelatin) (P02453 162-1217, chain 1 of 2): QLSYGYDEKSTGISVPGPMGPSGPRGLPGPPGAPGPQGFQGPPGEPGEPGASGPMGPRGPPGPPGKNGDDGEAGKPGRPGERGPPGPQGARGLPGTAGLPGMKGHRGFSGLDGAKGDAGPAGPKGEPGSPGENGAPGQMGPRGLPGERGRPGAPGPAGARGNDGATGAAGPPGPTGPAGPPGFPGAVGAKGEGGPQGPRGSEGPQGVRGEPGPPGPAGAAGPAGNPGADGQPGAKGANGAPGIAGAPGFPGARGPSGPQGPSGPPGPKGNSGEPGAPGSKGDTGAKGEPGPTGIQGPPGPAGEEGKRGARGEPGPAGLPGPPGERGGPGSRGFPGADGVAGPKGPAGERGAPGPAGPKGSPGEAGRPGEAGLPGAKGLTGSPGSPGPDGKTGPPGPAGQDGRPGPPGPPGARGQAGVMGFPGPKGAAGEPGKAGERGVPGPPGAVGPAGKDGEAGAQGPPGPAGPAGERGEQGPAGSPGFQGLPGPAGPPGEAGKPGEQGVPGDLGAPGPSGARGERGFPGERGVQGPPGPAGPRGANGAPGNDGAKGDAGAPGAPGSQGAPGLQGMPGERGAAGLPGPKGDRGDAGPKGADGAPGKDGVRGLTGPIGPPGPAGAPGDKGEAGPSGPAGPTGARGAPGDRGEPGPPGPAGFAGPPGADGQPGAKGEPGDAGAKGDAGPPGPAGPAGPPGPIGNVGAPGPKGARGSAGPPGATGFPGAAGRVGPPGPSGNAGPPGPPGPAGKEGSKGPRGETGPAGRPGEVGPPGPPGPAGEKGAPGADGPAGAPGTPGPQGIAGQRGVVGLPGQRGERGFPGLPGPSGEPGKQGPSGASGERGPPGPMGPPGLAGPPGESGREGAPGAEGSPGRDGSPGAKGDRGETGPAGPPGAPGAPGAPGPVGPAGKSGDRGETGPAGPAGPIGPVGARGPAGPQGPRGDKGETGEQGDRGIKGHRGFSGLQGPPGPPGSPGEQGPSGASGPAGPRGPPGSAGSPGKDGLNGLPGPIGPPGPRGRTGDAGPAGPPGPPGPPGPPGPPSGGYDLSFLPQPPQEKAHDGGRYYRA
Chain of type I collagen gelatin (skin gelatin) (P02465 80-1117, chain 2 of 2, further chain): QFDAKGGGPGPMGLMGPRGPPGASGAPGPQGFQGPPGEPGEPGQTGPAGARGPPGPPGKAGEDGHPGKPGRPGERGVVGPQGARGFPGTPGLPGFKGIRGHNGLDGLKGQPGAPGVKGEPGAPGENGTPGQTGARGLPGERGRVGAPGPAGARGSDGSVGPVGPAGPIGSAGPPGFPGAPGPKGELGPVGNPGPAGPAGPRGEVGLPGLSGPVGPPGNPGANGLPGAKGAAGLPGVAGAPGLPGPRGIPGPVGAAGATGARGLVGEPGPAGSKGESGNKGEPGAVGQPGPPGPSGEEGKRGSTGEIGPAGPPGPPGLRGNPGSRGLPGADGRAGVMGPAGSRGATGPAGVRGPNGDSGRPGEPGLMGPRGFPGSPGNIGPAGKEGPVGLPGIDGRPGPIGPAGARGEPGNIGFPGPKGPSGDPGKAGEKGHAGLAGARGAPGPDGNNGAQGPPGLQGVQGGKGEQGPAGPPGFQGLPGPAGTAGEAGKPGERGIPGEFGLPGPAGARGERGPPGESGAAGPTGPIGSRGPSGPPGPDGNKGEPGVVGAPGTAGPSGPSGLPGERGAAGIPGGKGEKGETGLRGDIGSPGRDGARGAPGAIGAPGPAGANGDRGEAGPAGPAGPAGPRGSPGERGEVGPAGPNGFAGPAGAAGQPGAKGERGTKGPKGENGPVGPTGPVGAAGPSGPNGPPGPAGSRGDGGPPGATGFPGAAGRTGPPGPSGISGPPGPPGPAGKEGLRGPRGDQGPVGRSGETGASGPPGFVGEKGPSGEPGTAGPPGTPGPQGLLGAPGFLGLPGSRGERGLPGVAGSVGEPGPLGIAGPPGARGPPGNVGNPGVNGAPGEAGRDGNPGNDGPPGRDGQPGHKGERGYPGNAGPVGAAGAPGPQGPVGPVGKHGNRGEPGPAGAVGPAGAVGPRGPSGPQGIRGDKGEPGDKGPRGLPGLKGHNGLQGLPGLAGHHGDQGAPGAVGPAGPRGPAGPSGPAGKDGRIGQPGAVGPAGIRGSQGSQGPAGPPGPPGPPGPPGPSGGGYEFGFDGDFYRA

| Kd [1] [nM] | Kd (type II collagen gelatin [2]) [nM] | fold better binding than to type II gelatin [3] [fold] | median % adhesion relative to plastic (type II collagen gelatin [4]) [%] | fold higher affinity than 333 (type II collagen gelatin [5]) [fold] | fold higher affinity than the full length CBD (type II collagen gelatin [5]) [fold] | fold higher affinity than the naturally occurring CBD of MMP-2 (type II collagen gelatin [6]) [fold] | Binder |
| --- | --- | --- | --- | --- | --- | --- | --- |
| 2.58 | 20.4 |  |  |  |  |  | collagen binding domain (CBD) of gelatinase A (MMP-2) (other, Expressed in Shuffle T7 E. coli with a His6-SUMO tag that was cleaved off; also called CBD of MMP-2; Full length CBD) ADGEYCKFPFLFNGKEYNSCTDTGRSDGFLWCSTTYNFEKDGKYGFCPHEALFTMGGNAEGQPCKFPFRFQGTSYDSCTTEGRTDGYRWCGTTEDYDRDKKYGFCPETAMSTVGGNSEGAPCVFPFTFLGNKYESCTSAGRSDGKMWCATTANYDDDRKWGFCPD |
| 4090 | 12000 | 3 |  |  |  |  | SEGAPCVFPFTFLGNKYESCTSAGRSDGKMWCATTANYDDDRKWGFCPD (other, cysteine pairing not given here; also: biotinylated for plate binding assay, also called M3) [module 3 of the CBD of MMP-2] |
| 3720 | 4260 |  |  |  |  |  | AEGQPCKFPFRFQGTSYDSCTTEGRTDGYRWCGTTEDYDRDKKYGFCPE (other, cysteine pairing not given here; also: biotinylated for plate binding assay, also called M2) [module 2 of the CBD of MMP-2] |
|  |  |  | 224 |  |  |  | conjugate comprising MSCs and the peptide 222 (other, carboxylic residues cationised by covalent coupling of N,N'-dimethyl-1,3-propanediamine (DMPA); corona of glycolic acid ethoxylate 4-nonylphenyl ether surfactant; incorporated into the membrane of mesenchymal stem cells) EGQVVFTMYGNAEGQPCKFPFRFQGTSYDSCTTEGRTDGYRWCGTTEDYDRDKKYGFCPHEALFTMGGNAEGQPCKFPFRFQGTSYDSCTTEGRTDGYRWCGTTEDYDRDKKYGFCPETALFTMGGNAEGQPCKFPFRFQGTSYDSCTTEGRTDGYRWCGTTEDYDRDKKYGFCPDQGYSL |
| 0.497 | 1.46 |  |  | 10 | 10 | ~14 | peptide 222 comprising three modules corresponding to module 2 of the CBD of MMP-2 (designed binder, Expressed in Shuffle cells with a His6-SUMO tag that was cleaved off) EGQVVFTMYGNAEGQPCKFPFRFQGTSYDSCTTEGRTDGYRWCGTTEDYDRDKKYGFCPHEALFTMGGNAEGQPCKFPFRFQGTSYDSCTTEGRTDGYRWCGTTEDYDRDKKYGFCPETALFTMGGNAEGQPCKFPFRFQGTSYDSCTTEGRTDGYRWCGTTEDYDRDKKYGFCPDQGYSL |
| 0.0159 | 117 |  |  |  |  |  | peptide 333 comprising three modules corresponding to module 3 of the CBD of MMP-2 (designed binder) EGQVVSTVYGNSEGAPCVFPFTFLGNKYESCTSAGRSDGFLWCATTANYDDDRKWGFCPHEALFTMGGNSEGAPCVFPFTFLGNKYESCTSAGRSDGKRWCATTANYDDDRKWGFCPETAMSTVGGNSEGAPCVFPFTFLGNKYESCTSAGRSDGKMWCATTANYDDDRKWGFCPDQGYSL |
